Biological target: SARS-CoV-2 Wuhan-Hu-1 NTD (SARS-CoV-2, UniProt P0DTC2)
Assay: cell-based or functional assay

B1: JN231 (antibody, V domains shown)
VH: VQLVESGGGVVQPGRSLRLSCAASGFTFSSYGMHWVRQAPGKGLEWVAVISYDGSNKYYADSVKGRFTISRDNSKNTLYLQMNSLRAEDTAVYYCAKDSRYYDFWSGYLGPDEYYYYYYMDVWGKGTTVTVSS
VL: not shown
- neutralisation IC50, WT (293TAce2): > 1 µg/mL

B2: JN006 (antibody, V domains shown)
VH: VQLVESGGGVVQPGRSLRLSCAASGFTFSNYVMHWVRQAPGKGLEWVAVMSSDGSIKYYADSVKGRFTVSRDNSKNTLYLQMNSLRPEDTAVYYCARGGRYSGSHTGDAFDIWGQGTMVTVSS
VL: SYELTQPPSVSVSPGQTARITCSGDALPNRYSYWYQQKPGQAPVLVIFKDSERPSGIPERFSGSSSGTTVTLTISGVQAEDEADYYCQSADSSGTWVFGGGTKLTVL
- neutralisation IC50, WT (293TAce2): > 1 µg/mL

B3: JN021 (antibody, V domains shown)
VH: QLQLQESGPGLVKPSETLSLTCTVSGGSIRSRGYYWGWIRQPPGKGLEWIGSIDYSGSTYYNPSLKSRVTISVDTSKNQFSLKLNSVTAADTAVFYCASSADTYYDILTGYYKGWYIDYWGQGTLVTVSS
VL: LTQPRSVSGSPGQSVTISCAGTSSDVGGYNYVSWYQQHPGKAPKLMIFDVTKRPSGVPDRFSGSKSGNTASLTISGLQAEDDADYYCCSYAGSYTYWVFGGGTKLTVL
- neutralisation IC50, WT (293TAce2): > 1 µg/mL

B4: JN220 (antibody, V domains shown)
VH: VQLVESGGGVVQPGRSLRLSCAASGFTFSSYTMHWVRQAPGKGLEWVAVISYDGSNKYYADSVKGRFTISRDNSKNTLYLQMNSLRAEDTAVYYCAISSGWYSMSGAFDIWGQGTMVTVSS
VL: QSALTQPRSVSGSPGQSVTISCTGTSSDVGGYNYVSWYQQHPGKAPKLMIYDVSKRPSGVPDRFSGSKSGNTASLTISGLQAEDEADYYCCSYAGSYRVFGTGTKVTVL
- neutralisation IC50, WT (293TAce2): > 1 µg/mL

B5: JN011 (antibody, V domains shown)
VH: VQLVESGGGVVQPGRSLRLSCAASGFTFSSYAMHWVRQAPGKGLEWVAVISYDGSNKYYADSVKGRFTISRDNSKNTLYLQMNSLRAEDTAVYYCAGSLGEEYYYYYYGMDVWGQGTTVTVSS
VL: NFMLTQPHSVSESPGKTVTISCTGSSGSIASNYVQWYQQRPGSAPTTVIYEDNQRPSGVPDRFSGSIDSSSNSASLTISGLKTEDEADYYCQSYDSSNWVFGGGTKLTVL
- neutralisation IC50, WT (293TAce2): > 1 µg/mL

B6: JN024 (antibody, V domains shown)
VH: QVQLQESGPKLMKPSQTLSLTCAVSGASIRSGGYYWSWIRQHPGKGLEWIGYIYYSGSTYYNPSLKSRATISVDTSKNQFSLKLTSVTAADTAVYYCARAGRWFGELFRGGGYFDYWGLGTLVTVSS
VL: AIRMTQSPSSLSASVGDRVTITCQASQDIGIFLNWYQQKSGEAPKLLIYDASNLETGVPSRFSGSGSGTDFIFIIRNLQPEDSATYYCQQHNHLPRVTFGPGTKVDIK
- neutralisation IC50, WT (293TAce2): > 1 µg/mL

B7: JN019 (antibody, V domains shown)
VH: VQLVESGGGVVQPGRSLRLSCAASGFTFSNYGMHWVRQAPGKGLEWVAFISYDANHKYSTNSVKGRFTISRDNSKNTLYLQMNSLRTEDTAVYYCASMDGLHPGTAQFYGMDVWGQGTTVTVSS
VL: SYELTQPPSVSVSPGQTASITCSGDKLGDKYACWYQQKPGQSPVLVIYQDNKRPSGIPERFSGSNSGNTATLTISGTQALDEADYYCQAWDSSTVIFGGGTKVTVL
- neutralisation IC50, WT (293TAce2): 0.0345 µg/mL

B8: JN020 (antibody, V domains shown)
VH: EVQLVESGGDLVRRGESLRLSCAASGFTFSNHWMTWVRQAPGRGLEWVANIEGDGSDKYYVDSVKGRFTISRDNARNLLFLYMNALRGDDTAIYYCARHSATYHGLDQWGQGTLVTVSS
VL: LTQPRSVSGSPGQSVTISCTGTSSDVGGYIFVSWYQRHPGKAPKLILFHVDKRPSGVPDRFSGSRSGNTASLTISGLQTEDEADYDCYSFAGTIWMFGGGTRLTVL
- neutralisation IC50, WT (293TAce2): > 1 µg/mL
